T1: synthetic peptide MSP-3190-217 (Plasmodium falciparum)
T1 peptide: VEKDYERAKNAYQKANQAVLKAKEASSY

T2: synthetic peptide MSP-3211-237 (Plasmodium falciparum)
T2 construct: also called MSP-3b
T2 peptide: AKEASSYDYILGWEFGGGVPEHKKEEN

B1: RAM2 Fab-ΔpIII (Fab, V domains shown)
VH: QVQLQESGGGLVKPGGSLKLSCAASGFTFSSYGMSWVRQTPDKRLEWVATISSGGSYTYYPDSVKGRFTISRDNAKNTLYLQMSSLKSEDTAMYYCARLYYGYRYYFDYWGQGTMVTVSS
VL: DIQLTQSPSSLSASIGDRVTITCQASQDITNSLNWYQQRPGQAPKLLIYDAFTLKTGVPSRFSGRGSGTSFTIAINSFQAEDIGTYFCQQSHRVPFTFGGGTRVEIKR
notes: Human Fab made in E. coli from pFAB73H; VH is joined to human gamma 1 CH1 (residues 118 to 230), then a spacer with a trypsin site and truncated f1 phage pIII (ΔpIII); The light chain is VK plus human kappa constant domain; also called Fab-ΔpIII RAM2; RAM2 in the Fab-ΔpIII format
B2: recombinant MSP-3194-257 (other)
chain: HERAKNAYQKANQAVLKAKEASSYDYILGWEFGGGVPEHKKEENMLSHLYVSSKDKENISKENE
notes: also called panning antigen

How the values were obtained:
[1] = biological target: B2; assay: direct ELISA, coated recombinant antigen
[2] = biological target: T3, native MSP-3 antigen of Plasmodium falciparum clone 3D7 schizonts and merozoites (Plasmodium falciparum); assay: flow cytometry on ethanol-fixed permeabilized schizonts, FITC anti-human Fab
T3 construct: whole, on cells; The motif 220-230 is also present in MSP-6; also called native malaria antigen; parasite proteins
Experimental: The gating was placed to include the majority of the infected cells. The gating was used for the histograms described below.
Parasites were then washed in PBS with 1% BSA, incubated over night with antibody (Fab-ΔpIII or IgG1), washed twice with PBS supplemented with 1% BSA and incubated for 30 minutes with FITC-conjugated goat anti-human Fab (Sigma F5512) diluted 1:25. Cells were analyzed in a Coulter EPICS-2 flow cytometer. Hib-CP specific antibody was used as control in corresponding concentrations.

[3] = biological target: B1; assay: antigen competition ELISA; soluble antigen 4 nM to 1250 nM against coated MSP-3194-257
[4] = biological target: T1, synthetic peptide MSP-3190-217; assay: ELISA on synthetic peptides
[5] = biological target: T2, synthetic peptide MSP-3211-237; assay: ELISA on synthetic peptides

| Binder | percent of events under the bar M1 [2] | other results |
| --- | --- | --- |
| B1 | 28% | binding result [1]: binds |
| B2 |  | binding result [3]: binds |
| RAM1 Fab-ΔpIII (Fab, V domains shown, Human Fab made in E. coli from pFAB73H; VH is joined to human gamma 1 CH1 (residues 118 to 230 of the H chain), then a spacer with a trypsin cleavage site and truncated f1 phage protein pIII (ΔpIII); The light chain is VK plus human kappa constant domain; also called Fab-ΔpIII RAM1; RAM1 in the Fab-ΔpIII format) VH: QVQLVQSGGGVVQPGRSLRLSCAASGFTFSSYAMHWVRQAPGKGLEWVAVISYDGSNKYYADSVKGRFTISRDNSKNTLYLQMSSLRAEDTAVYYCVKGASSWSTGTLVTVSS VL: DIVMMQSPATLSASVGDRVTITCRASQSISSWLAWYQQKPGKAPNLLIYKASSLESGVPSRFSGSGSGTEFTLTISSLQPDDFATYYCQQYKSFPYTFGQGTRLEIKR | 76% |  |
| RAM2 IgG1 (antibody, V domains shown, Intact human IgG1 kappa, allotype G1m(a,z), made in CHO cells) VH: QVQLQESGGGLVKPGGSLKLSCAASGFTFSSYGMSWVRQTPDKRLEWVATISSGGSYTYYPDSVKGRFTISRDNAKNTLYLQMSSLKSEDTAMYYCARLYYGYRYYFDYWGQGTMVTVSS VL: DIQLTQSPSSLSASIGDRVTITCQASQDITNSLNWYQQRPGQAPKLLIYDAFTLKTGVPSRFSGRGSGTSFTIAINSFQAEDIGTYFCQQSHRVPFTFGGGTRVEIKR |  | binding result [4]: binds; binding result [5]: binds |
| RAM3 Fab-ΔpIII (Fab, V domains shown, Human Fab made in E. coli from pFAB73H; VH is joined to human gamma 1 CH1 (residues 118 to 230), then a spacer with a trypsin site and truncated f1 phage pIII (ΔpIII); The light chain is VK plus human kappa constant domain; also called Fab-ΔpIII RAM3; RAM3 in the Fab-ΔpIII format) VH: QVQLVQSGGGVVQPGRSLRLSCAASGFTFSSYAMHWVRQAPGKGLEWVAVISYDGSNKYYADSVKGRFTISRDNSKNTLYLQMNSLRAEDKAVYYCARDSGGIAARLGGYFDLWGRGTTVTVSS VL: DIRMTQSPSFLSASVGDRVTITCRASQGISSYLAWYQQKPGKAPKLLIYAASTLQSGVPSRFSGSGSGTEFTLTISSLQPEDFATYYCQQGPTFGGGTKVEIKR | 4% |  |
| RAM1 IgG1 (antibody, V domains shown, Intact human IgG1 kappa, allotype G1m(a,z), made in CHO cells from pLNOH2 and pLNOK; also called IgG1 anti-MSP3; RAM1 in the IgG1 format) VH: QVQLVQSGGGVVQPGRSLRLSCAASGFTFSSYAMHWVRQAPGKGLEWVAVISYDGSNKYYADSVKGRFTISRDNSKNTLYLQMSSLRAEDTAVYYCVKGASSWSTGTLVTVSS VL: DIVMMQSPATLSASVGDRVTITCRASQSISSWLAWYQQKPGKAPNLLIYKASSLESGVPSRFSGSGSGTEFTLTISSLQPDDFATYYCQQYKSFPYTFGQGTRLEIKR | 47% |  |

From patent US7811569 (INSTITUT PASTEUR, dated 2010)
